From PMC12833063

Target: anti-PD-L1×avβ3 dual function antibody (B1451)
Assay: SPR; Biacore T200; B1451 captured at about 35 RU on anti-human IgG (Fc) immobilised on a CM5 chip; human αvβ3 injected, 2-fold dilutions 12.5-400 nM, association 120 s; regeneration 10 mM glycine-HCl pH 1.5; 1:1 binding model

human αvβ3, sequence (P06756 31-1048): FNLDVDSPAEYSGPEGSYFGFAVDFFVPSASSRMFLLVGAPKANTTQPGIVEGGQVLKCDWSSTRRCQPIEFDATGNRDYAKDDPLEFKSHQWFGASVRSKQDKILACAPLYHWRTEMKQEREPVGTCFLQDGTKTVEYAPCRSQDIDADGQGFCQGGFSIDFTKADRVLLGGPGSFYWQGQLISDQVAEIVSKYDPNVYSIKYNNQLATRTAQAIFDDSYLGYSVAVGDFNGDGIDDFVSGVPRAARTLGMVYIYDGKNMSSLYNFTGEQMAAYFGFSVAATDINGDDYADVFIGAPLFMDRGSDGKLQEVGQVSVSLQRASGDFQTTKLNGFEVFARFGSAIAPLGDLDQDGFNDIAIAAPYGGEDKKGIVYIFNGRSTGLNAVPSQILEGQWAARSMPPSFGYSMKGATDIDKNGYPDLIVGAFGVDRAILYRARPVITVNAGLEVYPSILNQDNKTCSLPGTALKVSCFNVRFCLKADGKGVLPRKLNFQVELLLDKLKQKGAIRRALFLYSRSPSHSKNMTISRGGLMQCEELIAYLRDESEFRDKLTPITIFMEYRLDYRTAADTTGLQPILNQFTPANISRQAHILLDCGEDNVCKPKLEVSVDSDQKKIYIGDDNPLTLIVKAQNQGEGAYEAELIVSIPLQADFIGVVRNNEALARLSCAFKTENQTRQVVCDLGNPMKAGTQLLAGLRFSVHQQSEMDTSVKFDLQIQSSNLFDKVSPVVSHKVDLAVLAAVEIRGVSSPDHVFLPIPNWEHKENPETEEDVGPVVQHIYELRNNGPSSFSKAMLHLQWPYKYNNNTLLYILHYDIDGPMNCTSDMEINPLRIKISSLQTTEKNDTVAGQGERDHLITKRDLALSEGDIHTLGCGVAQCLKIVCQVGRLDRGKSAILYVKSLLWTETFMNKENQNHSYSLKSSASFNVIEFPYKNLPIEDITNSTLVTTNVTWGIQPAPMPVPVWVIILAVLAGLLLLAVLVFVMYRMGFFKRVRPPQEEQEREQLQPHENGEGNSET
human αvβ3, sequence (P05106 27-718): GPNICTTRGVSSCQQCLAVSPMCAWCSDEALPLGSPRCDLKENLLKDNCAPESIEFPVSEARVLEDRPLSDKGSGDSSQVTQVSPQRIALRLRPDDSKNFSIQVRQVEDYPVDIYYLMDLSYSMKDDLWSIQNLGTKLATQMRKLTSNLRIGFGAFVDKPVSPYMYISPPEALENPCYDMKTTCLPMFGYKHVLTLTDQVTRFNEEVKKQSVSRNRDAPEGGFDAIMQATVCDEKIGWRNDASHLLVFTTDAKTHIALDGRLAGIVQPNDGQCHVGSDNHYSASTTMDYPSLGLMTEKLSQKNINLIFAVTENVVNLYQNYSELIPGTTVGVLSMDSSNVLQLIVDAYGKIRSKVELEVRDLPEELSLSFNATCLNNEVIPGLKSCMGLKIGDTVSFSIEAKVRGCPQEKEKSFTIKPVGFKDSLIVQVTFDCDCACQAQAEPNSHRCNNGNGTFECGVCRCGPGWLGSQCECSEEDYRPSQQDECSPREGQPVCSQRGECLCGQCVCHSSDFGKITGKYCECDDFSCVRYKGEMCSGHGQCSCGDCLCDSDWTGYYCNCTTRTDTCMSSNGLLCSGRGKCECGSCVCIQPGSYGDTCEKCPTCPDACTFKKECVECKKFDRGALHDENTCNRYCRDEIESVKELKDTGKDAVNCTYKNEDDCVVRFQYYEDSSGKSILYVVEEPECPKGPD

Kd: 15.5 µM
Substance: human αvβ3 (from UniProt P06756 31-1048; P05106 27-718) (complex)
